Key:
[1] = substrate: C=CCN=C=S; experiment: purified protein; format: biochemical, Spodoptera littoralis; conditions: 4 mM GSH (saturating), 100 mM potassium phosphate pH 6.5, 25 °C, 2.4% acetonitrile
[2] = substrate: S=C=NCc1ccccc1; experiment: purified protein; format: biochemical, Spodoptera littoralis; conditions: 4 mM GSH (saturating), 100 mM potassium phosphate pH 6.5, 25 °C, 2.4% acetonitrile

| Protein | Km [1] [µM] | Vmax [1] [µmol/min/mg] | kcat [1] [s⁻¹] | kcat/Km [1] [M⁻¹ s⁻¹] | Km [2] [µM] | Vmax [2] [µmol/min/mg] | kcat [2] [s⁻¹] | kcat/Km [2] [M⁻¹ s⁻¹] |
| --- | --- | --- | --- | --- | --- | --- | --- | --- |
| GSTS6 (GSTs6) (Spodoptera littoralis) (protein, cytosolic sigma class) MPKKLSYFNLNGLAEPIRYILHYTNQEFEDVRYDVYSWPDPKIKASLPYGQFPVYEEDGRVLTQSLAITKYVARGTDLVPTDPWDNAFIESVIFSIMDYWKNVVPTVREPDPAKYTELRNEIIEKNIPYYFSRFNKHLEDNGGFLNGKLSWGDFVFCGVIEASDMFLGIELSKDYPAVGSLVQHIRNLPGVKEYVKSIGPYTIDLARFKYKK | 567.11 ± 131.85 | 39.3 | 16.1 ± 2.28 | 28400 ± 4020 | 98.24 ± 21.15 | 52.7 | 21.6 ± 1.46 | 220000 ± 14900 |
| GSTE14 (GSTe14) (Spodoptera littoralis) (protein, cytosolic epsilon class) MGVKLYVMDFSPPSRACMLTCEIFGIPFEKIPVDLFKGEHLAPNYLQKNPLHTIPVLEDGDLILYDSHAIMAYLADTYGKDESWYPKDVKKRALVNQKLFFNTAVIYRRLRNITYYVFQRGRKTLEQDWLDDIAEGYGFLEAFLSKTKYIAGDHITIADIAILSHLTNLEYILPIDAKKYPKTSAWLEDFKATPYAKKHNEEGAKALNDLLKKFLTS | 124.10 ± 15.66 | 89.4 | 37.4 ± 1.85 | 302000 ± 14900 | 185.37 ± 89.77 | 47.3 | 19.8 ± 3.35 | 107000 ± 37300 |

Source: publication PMC12174363, “Multiple glutathione-S-transferases detoxify diverse glucosinolate-based defenses of Brassicales plants in a generalist lepidopteran herbivore (Spodoptera littoralis)” (Communications Biology, 2025)
